In article doi:10.1101/099465:

Molecular target: Laminin-111 (UniProt P19137)
Assay: SPR

## VEGFA165 (ligand)
  Kd: 0.047 µM
